Measured values published in US20050026157, “Use of chimeric nucleases to stimulate gene targeting” (published 2005).

How the values were obtained:
[1] = test system: GFP-CN1 chimeric nuclease (synthetic); assay: cell_activity; conditions: paired with GFP-CN2, 293 cells
[2] = test system: GFP-CN2 chimeric nuclease (synthetic); assay: cell_activity; conditions: paired with GFP-CN1, 293 cells
[3] = test system: HBGZF1 chimeric nuclease (synthetic); assay: cell_activity; conditions: with ZIF-L3-Fn on hybrid target; no significant stimulation alone
[4] = target: ZIF-L3-Fn chimeric nuclease (Zif268 zinc fingers, 3 aa linker, FokI nuclease domain) (UniProt P08046); assay: cell_activity; conditions: QQRZIF6 target, heterodimer with QQR-L0-Fn; no significant stimulation alone; FIG. 3A prints Zif site as GCGTGGTCG
[5] = test system: HBGZF4 chimeric nuclease (synthetic); assay: cell_activity; conditions: with ZIF-L3-Fn on hybrid target; ~30 fold alone
[6] = test system: QQR-L18-Fn chimeric nuclease (QQR zinc finger triplet, 18 aa linker, FokI nuclease domain) (synthetic); assay: cell_activity; conditions: homodimer, 293 cells
[7] = test system: QQR-L0-Fn chimeric nuclease (QQR zinc finger triplet, no linker, FokI nuclease domain) (synthetic); assay: cell_activity
[8] = test system: HCGCZF2 chimeric nuclease (synthetic); assay: cell_activity; conditions: with ZIF-L3-Fn on hybrid target; no significant stimulation alone
[9] = test system: CD8CN2 chimeric nuclease (synthetic); assay: cell_activity; conditions: paired with CD8CN1; 5% without nucleases
[10] = test system: CD8CN1 chimeric nuclease (synthetic); assay: cell_activity; conditions: paired with CD8CN2; 5% without nucleases
[11] = target: T1, I-SceI (UniProt P03882 P03882:1-235); assay: cell_activity; homing endonuclease, A658 target, 293 cells
T1 sequence: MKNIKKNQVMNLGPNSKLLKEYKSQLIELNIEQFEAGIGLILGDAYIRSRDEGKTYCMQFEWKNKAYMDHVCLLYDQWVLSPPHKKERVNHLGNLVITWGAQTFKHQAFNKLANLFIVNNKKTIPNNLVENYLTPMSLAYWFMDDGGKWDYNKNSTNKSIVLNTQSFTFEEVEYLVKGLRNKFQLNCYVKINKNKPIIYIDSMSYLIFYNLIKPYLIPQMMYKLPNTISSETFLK
From the text: FIG. 1A illustrates a GFP gene targeting system. The artificial gene target (A658) consisted of a GFP gene mutated by a 35 basepair insertion which includes a stop codon and a recognition site for the I-SceI endonuclease (Sce) (5′ […] 3′) at basepair 327 of the coding sequence. The GFP gene was driven by a hybrid cytomegalovirus enhancer/chicken β3-actin promoter (“CMV/CBA” or “CBA”). The GFP gene was part of bicistronic transcript in which an internal ribosomal entry site (“IRES”) allowed translation of the human CD8α gene (“CD8”). The bicistronic message contained a Woodchuck post-trancriptional regulatory element (“WPRE”) to increase messenger RNA levels (Zufferey et al., 1999, J Virol, 73:2886-92). Finally, the locus contained a gene with the phosphoglycerate kinase promoter (“PGK”) driving the neomycin phosphotransferase gene (NEO) to allow selection by the antibiotic G418. […] Gene targeting was measured by transfecting 293/A658 cells with RS2100 with or without a Sce expression plasmid along with a control plasmid (pON405) to determine the transfection efficiency. […] The cells were then incubated for 3 days and the percentage of GFP positive cells measured by flow cytometry using a FACScan (BD Biosciences, San Jose, Calif.). The gene targeting rate was determined by normalizing the measured percentage of GFP positive cells to the transfection efficiency.

Sequence of ZIF-L3-Fn chimeric nuclease (Zif268 zinc fingers, 3 aa linker, FokI nuclease domain) (P08046 whole entry, change not shown, the tested form may be a part): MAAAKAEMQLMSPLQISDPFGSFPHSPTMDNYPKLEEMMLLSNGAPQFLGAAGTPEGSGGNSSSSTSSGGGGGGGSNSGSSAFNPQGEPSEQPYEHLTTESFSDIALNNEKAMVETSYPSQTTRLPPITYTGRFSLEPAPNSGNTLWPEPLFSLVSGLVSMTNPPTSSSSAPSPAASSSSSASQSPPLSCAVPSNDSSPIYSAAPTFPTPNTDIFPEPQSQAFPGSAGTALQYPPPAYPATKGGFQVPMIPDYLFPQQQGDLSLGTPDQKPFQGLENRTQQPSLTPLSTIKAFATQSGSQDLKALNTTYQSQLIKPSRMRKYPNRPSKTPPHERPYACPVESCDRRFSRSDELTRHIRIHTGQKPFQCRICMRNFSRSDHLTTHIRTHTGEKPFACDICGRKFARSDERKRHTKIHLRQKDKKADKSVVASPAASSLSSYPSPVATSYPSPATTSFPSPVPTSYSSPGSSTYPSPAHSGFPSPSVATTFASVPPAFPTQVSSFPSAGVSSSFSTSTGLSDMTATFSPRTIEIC

“GAAGATGGT (double strand) [GFP-CN1 half-site]” gave an activity (fold stimulation of gene targeting) [1] of 1000.

For “GACGACGGC (double strand) [GFP-CN2 half-site]”, the activity (fold stimulation of gene targeting) [2] was 1000.

“GAGGTTGCT (double strand) [HBGZF1 half-site]” was tested, and the activity (fold stimulation of gene targeting) [3] was > 4000.

“GCGTGGGCG (double strand) [Zif268 half-site]” was tested, and the activity (fold stimulation of gene targeting) [4] was > 5000.

For “GGCAAGGTG (double strand) [HBGZF4 half-site]”, the activity (fold stimulation of gene targeting) [5] was 60.

In the case of “GGGGAAGAA (double strand) [QQR6 target (inverted QQR sites, 6 bp spacer)]”, the activity (fold stimulation of gene targeting) [6] is reported as 17 and the activity (fold stimulation of gene targeting) ([7]; homodimer, 293 cells, as efficient as I-SceI) is reported as > 2000.

In the case of “GGGGAAGAA (double strand) [QQR8 target (inverted QQR sites, 8 bp spacer)]”, the activity (fold stimulation of gene targeting) [6] is reported as 260.

For “GGGGAAGAA (double strand) [QQR half-site in QQRZIF6]”, the activity (fold stimulation of gene targeting) ([7]; QQRZIF6 target, heterodimer with ZIF-L3-Fn, no significant stimulation alone) was > 5000.

With “GGGGGAGCA (double strand) [HCGCZF2 half-site]” the activity (fold stimulation of gene targeting) [8] was > 200.

For “GTCGCAGCC (double strand) [CD8CN2 half-site]”, the activity (% CD8 negative cells) [9] was > 20.

With “GTGGGCGCC (double strand) [CD8CN1 half-site]” the activity (% CD8 negative cells) [10] was > 20.

B1: I-SceI site in A658 (dsDNA)
DNA 1: TAGGGATAACAGGGTAAT
DNA 2: ATTACCCTGTTATCCCTA
For B1, the activity [11] was > 2000 fold stimulation of gene targeting.
